From US20090137003A1

Target: RSV protein F (recombinant or purified F protein) (respiratory syncytial virus (RSV), strain not stated)
Assay: SPR (Biacore), Fab on recombinant antigen

“Fab fragments derived from commercially available Palivizumab (Synagis)” showed a Kd of 3.78 nM, a koff of 0.000757 s⁻¹ and a kon of 200000 M⁻¹ s⁻¹. It also gave a t1/2 of 15 min.
